According to the Human Domainome abundance scans (Beltran et al. 2025):

B1: PDZ and LIM domain protein 2, residues 284 to 339; numbered along this chain, Q96JY6 (parent)
chain: HTCEKCSTSIANQAVRIQEGRYRHPGCYTCADCGLNLKMRGHFWVGDELYCEKHAR

Variants of: B1
Assay: abundance fitness (aPCA) (normalised: wild type 0, dead -1); higher = more abundant; growth selection in yeast, the domain comes from the species named
Conditions: Homo sapiens

Abundance fitness, by site and new letter:
Q18: K -0.141 | F -0.303 | P -0.47 | N -0.248 | H -0.451 | G -0.088 | E 0.002 | V 0.008 | C -0.087 | S 0.03 | R -0.062 | A 0.043 | D -0.032 | T -0.051 | L -0.077 | M -0.253 | I 0.228
Y28: S -0.179 | Q -0.246 | N -0.294 | C -0.187 | W 0.053 | M -0.13 | V -0.144 | G -0.471 | R -0.473 | K -0.434 | T 0.116 | E -0.548 | D -0.772 | A -0.076 | L -0.262 | F -0.364 | H -0.225 | P -0.752 | I -0.452
V15: D -0.115 | I -0.105 | G -0.33 | Q -0.115 | A -0.625 | F -0.38 | R -0.596 | T -0.018 | M -0.283 | Y -0.499 | E 0.272 | P -0.654 | H -0.099 | S -0.231 | K 0.052 | C -0.317 | L -0.248 | W -0.875
G26: Q 0.232 | M 0.037 | N -0.083 | C 0.006 | D 0.227 | R 0.127 | K 0.209 | W 0.072 | P -0.016 | A 0.033 | F 0.19 | H 0.525 | S 0.069 | T 0.158 | I 0.08 | L 0.122 | E 0.277 | V 0.101
P25: G -0.053 | K -0.003 | S 0.118 | V -0.169 | T -0.09 | L 0.099 | F -0.492 | E 0.402 | A 0.113 | C -0.546 | Q 0.035 | I -0.033 | W -0.807 | Y -0.414 | N -0.152 | D 0.323 | M 0.075
A11: L -0.827 | G 0.017 | D 0.321 | F -1.16 | S 0.196 | Y -0.643 | H -0.085 | C -0.446 | Q -0.253 | M -0.521 | N 0.351 | P 0.118 | R -0.231 | T -0.016
G20: I -0.257 | C -0.339 | E -0.209 | P -0.63 | N 0.006 | V -0.363 | K -0.023 | S -0.29 | A -0.251 | T -0.129 | R -0.136 | H -0.119 | L -0.452 | W -0.497 | Y -0.174 | Q -0.56 | M -0.154 | F 0.116
I10: S -0.505 | Q -0.242 | L -0.413 | K -0.488 | N -0.119 | M -0.425 | T -0.14 | R -0.445 | V -0.187 | Y -0.809 | W -0.488
E19: M -0.163 | A -0.165 | P -0.211 | F -0.672 | W -0.624 | Y -0.549 | V -0.495 | D -0.374 | K 0.01 | L -0.237 | G -0.375 | R -0.12 | N -0.453 | T -0.068 | H -0.292 | S -0.197 | C -0.447 | Q -0.071
H24: L -0.898 | M -0.492 | E -0.439 | D -0.047 | R -0.435 | K -0.193 | Q -0.186 | P -0.582 | S -0.264 | C 0.309 | N -0.345 | A -0.307 | G -0.489 | I -0.973 | F -0.938 | W -0.788
Y22: G -0.411 | K -0.311 | P -0.496 | L -0.349 | T -0.477 | W -0.014 | R -0.333 | A -0.269 | N -0.32 | C -0.348 | I -0.691 | V -0.321 | M -0.532 | Q -0.02 | S -0.292 | F 0.108 | H -0.398
T29: G -0.198 | H -0.041 | N -0.177 | L -0.117 | C -0.23 | A -0.103 | I -0.004 | D 0.216 | P -0.767 | E -0.455 | M -0.354 | F -0.194
Q13: H -0.767 | E 0.194 | P -0.227 | S -0.128 | V -0.327 | M -0.223 | D 0.448 | A -0.399 | T -0.11 | I -0.778 | R -0.826 | L -0.36 | C -0.216 | F -0.049 | K -0.501 | W -1.19 | Y -0.775 | G 0.098
N12: F -0.494 | A -0.096 | K -0.295 | W -0.78 | D 0.595 | H 0.219 | R -0.73 | V -0.206 | G -0.408 | T 0.14 | C -0.135 | Y -0.622 | E 0.498 | I 0.021 | M -0.123 | S -0.028 | Q -0.044
A14: D -0.33 | I -0.07 | K -0.417 | W -0.182 | E 0.143 | Q -0.329 | H -0.247 | N -0.023 | Y -0.209 | G -0.254 | R -0.466 | S -0.179 | C -0.139 | T -0.468 | V -0.208 | F 0.188
C27: G -0.514 | F -1.02 | L -0.535 | T -0.442 | W -0.602 | P -0.425 | E -0.105 | K -0.39 | M -0.627 | Q -0.268 | A -0.428 | R -0.838 | Y -0.885 | N -0.826 | V -0.661 | S -0.598 | I -0.904
I17: L -0.121 | P -0.336 | K -0.427 | E -0.325 | G -0.239 | M -0.372 | Q -0.535 | W -0.533 | Y -0.437 | C -0.453 | T -0.311 | H -0.781 | V -0.106 | D -0.232 | R -0.599 | A -0.341
R21: A 0.015 | P -0.101 | L -0.01 | T 0.151 | H -0.015 | K 0.002 | I -0.046 | S -0.02 | V 0.11 | F -0.01 | G -0.251 | Y -0.008 | E -0.286 | C -0.069 | M 0.035 | N -0.259 | D -0.217
R16: V 0.146 | F 0.215 | E 0.037 | W 0.298 | G -0.015 | T 0.137 | M 0.2 | I 0.172 | S 0.112 | A 0.2 | D -0.091 | N 0.191 | L 0.168 | P 0.209 | Q 0.308 | Y 0.029 | C 0.32 | H 0.004 | K 0.223
R23: C -0.238 | D -0.486 | F -0.391 | T -0.125 | K -0.315 | S -0.278 | P -0.111 | Q -0.509 | Y -0.303 | H -0.302 | I -0.69 | A -0.108 | L -0.212 | G -0.457 | N -0.173 | W -0.431 | M -0.317 | E -0.318 | V -0.075
